Results taken from the Immune Epitope Database (IEDB).

How the values were obtained:
[1] = biological target: HLA-C*14:02; assay: IEDB peptide-MHC binding, purified MHC/direct/fluorescence; filed as Kd, often an IC50 or EC50 that approximates it; ≥ and ≤ were set here for values at or beyond the usual limits of such assays
[2] = biological target: HLA-A*02:01; assay: as above
[3] = biological target: HLA-A*02:03; assay: as above; conditions: source organism: Bacillus cereus 03BB108
[4] = biological target: HLA-A*02:12; assay: as above; conditions: source organism: Bacillus cereus 03BB108
[5] = biological target: HLA-B*07:02; assay: as above
[6] = biological target: HLA-A*02:50; assay: IEDB peptide-MHC binding, purified MHC/competitive/fluorescence; filed as Kd, often an IC50 or EC50 that approximates it; ≥ and ≤ were set here for values at or beyond the usual limits of such assays
[7] = biological target: HLA-A*01:01; assay: IEDB peptide-MHC binding, purified MHC/direct/fluorescence; filed as Kd, often an IC50 or EC50 that approximates it; ≥ and ≤ were set here for values at or beyond the usual limits of such assays
[8] = biological target: HLA-A*02:11; assay: as above; conditions: source organism: Mammarenavirus juninense
[9] = biological target: HLA-A*03:01; assay: as above
[10] = biological target: HLA-A*29:02; assay: as above; conditions: source organism: Mammarenavirus juninense
[11] = biological target: HLA-A*31:01; assay: as above
[12] = biological target: HLA-B*18:01; assay: as above
[13] = biological target: HLA-B*27:05; assay: as above
[14] = biological target: HLA-B*39:01; assay: as above
[15] = biological target: HLA-B*44:02; assay: as above
[16] = biological target: HLA-B*57:01; assay: as above
[17] = biological target: HLA-B*58:01; assay: as above
[18] = biological target: HLA-C*03:03; assay: as above
[19] = biological target: HLA-A*11:01; assay: as above
[20] = biological target: HLA-A*68:02; assay: as above; conditions: source organism: Vibrio parahaemolyticus
[21] = biological target: HLA-A*69:01; assay: as above
[22] = biological target: HLA-B*08:01; assay: as above
[23] = biological target: HLA-B*08:02; assay: as above; conditions: source organism: Vibrio parahaemolyticus RIMD 2210633
[24] = biological target: HLA-B*15:09; assay: as above; conditions: source organism: Vibrio parahaemolyticus RIMD 2210633
[25] = biological target: HLA-A*26:01; assay: IEDB peptide-MHC binding, purified MHC/competitive/fluorescence; filed as Kd, often an IC50 or EC50 that approximates it; ≥ and ≤ were set here for values at or beyond the usual limits of such assays; conditions: source organism: Vibrio parahaemolyticus K5030
[26] = biological target: HLA-A*26:02; assay: as above
[27] = biological target: HLA-B*15:01; assay: as above
[28] = biological target: HLA-A*26:01; assay: IEDB peptide-MHC binding, purified MHC/direct/fluorescence; filed as Kd, often an IC50 or EC50 that approximates it; ≥ and ≤ were set here for values at or beyond the usual limits of such assays
[29] = biological target: HLA-B*15:01; assay: as above
[30] = biological target: HLA-B*40:01; assay: as above
[31] = biological target: HLA-A*24:03; assay: as above; conditions: source organism: Yersinia pestis
[32] = biological target: HLA-B*40:01; assay: IEDB peptide-MHC binding, purified MHC/competitive/fluorescence; filed as Kd, often an IC50 or EC50 that approximates it; ≥ and ≤ were set here for values at or beyond the usual limits of such assays
[33] = biological target: HLA-B*39:01; assay: as above
[34] = biological target: HLA-B*15:17; assay: IEDB peptide-MHC binding, purified MHC/direct/fluorescence; filed as Kd, often an IC50 or EC50 that approximates it; ≥ and ≤ were set here for values at or beyond the usual limits of such assays; conditions: source organism: Escherichia coli O157:H7
[35] = biological target: HLA-A*11:01; assay: IEDB peptide-MHC binding, purified MHC/competitive/fluorescence; filed as Kd, often an IC50 or EC50 that approximates it; ≥ and ≤ were set here for values at or beyond the usual limits of such assays; conditions: source organism: Escherichia coli str. K-12 substr. MG1655
[36] = biological target: HLA-A*68:02; assay: as above; conditions: source organism: Escherichia coli str. K-12 substr. MG1655
[37] = biological target: HLA-A*02:03; assay: as above; conditions: source organism: Homo sapiens
[38] = biological target: HLA-A*02:06; assay: as above; conditions: source organism: Homo sapiens
[39] = biological target: HLA-A*30:01; assay: as above; conditions: source organism: Homo sapiens
[40] = biological target: HLA-B*08:01; assay: as above; conditions: source organism: Homo sapiens
[41] = source organism: Bacillus anthracis
[42] = source organism: Mammarenavirus juninense
[43] = source organism: Vibrio parahaemolyticus
[44] = source organism: Vibrio parahaemolyticus RIMD 2210633
[45] = source organism: Vibrio parahaemolyticus K5030
[46] = source organism: Vibrio cholerae
[47] = source organism: Yersinia pestis
[48] = source organism: Escherichia coli APEC O1
[49] = source organism: Cryptosporidium parvum
[50] = source organism: Escherichia coli O139:H28 str. E24377A
[51] = source organism: Escherichia coli O157:H7

AASYARYVL
Kd ([1]; source organism: human gammaherpesvirus 4): 0.491 µM

AQMVWIHGV
Kd [2, 41]: 0.0013 µM | Kd [3]: 0.03 µM | Kd [4]: 0.071 µM | Kd [5, 41]: ≥ 20 µM | Kd ([6]; source organism: Bacillus anthracis str. A2012): 0.0003 µM

ASSEPHCAL
Kd [7, 42]: ≥ 20 µM | Kd [2, 42]: ≥ 20 µM | Kd [8]: 0.04 µM | Kd [9, 42]: ≥ 20 µM | Kd [10]: ≥ 20 µM | Kd [11, 42]: ≥ 20 µM | Kd [12, 42]: ≥ 20 µM | Kd [13, 42]: ≥ 20 µM | Kd [14, 42]: 1.07 µM | Kd [15, 42]: ≥ 20 µM | Kd [16, 42]: ≥ 20 µM | Kd [17, 42]: ≥ 20 µM | Kd [18, 42]: ≤ 0.001 µM

DMRKRIEAF
Kd [7, 43]: ≥ 20 µM | Kd [2, 43]: ≥ 20 µM | Kd [19, 43]: ≥ 20 µM | Kd [20]: ≥ 20 µM | Kd [21, 43]: ≥ 20 µM | Kd [5, 43]: ≥ 20 µM | Kd [22, 44]: 0.013 µM | Kd [23]: 0.171 µM | Kd [24]: ≥ 20 µM | Kd [12, 44]: 0.025 µM | Kd [14, 44]: ≥ 20 µM | Kd [16, 43]: ≥ 20 µM | Kd [17, 43]: ≥ 20 µM | Kd [25]: ≥ 20 µM | Kd [26, 45]: 0.0073 µM | Kd [27, 45]: ≥ 20 µM

FLHPKHWGT
Kd [7, 46]: ≥ 20 µM | Kd [2, 46]: 0.157 µM | Kd [9, 46]: ≥ 20 µM | Kd [19, 46]: ≥ 20 µM | Kd [28, 46]: ≥ 20 µM | Kd [11, 46]: ≥ 20 µM | Kd [21, 46]: 3.48 µM | Kd [5, 46]: ≥ 20 µM | Kd [22, 46]: 0.285 µM | Kd [29, 46]: ≥ 20 µM | Kd [13, 46]: ≥ 20 µM | Kd [30, 46]: ≥ 20 µM | Kd [15, 46]: ≥ 20 µM | Kd [17, 46]: ≥ 20 µM | Kd ([6]; source organism: Vibrio cholerae 2740-80): ≤ 0.0001 µM

FMSLQSGDV
Kd [7, 47]: ≥ 20 µM | Kd [2, 47]: ≥ 20 µM | Kd [9, 47]: ≥ 20 µM | Kd [19, 47]: ≥ 20 µM | Kd [31]: ≥ 20 µM | Kd [28, 47]: ≥ 20 µM | Kd [11, 47]: ≥ 20 µM | Kd [21, 47]: 1.34 µM | Kd [5, 47]: ≥ 20 µM | Kd [22, 47]: ≥ 20 µM | Kd [29, 47]: ≥ 20 µM | Kd [13, 47]: ≥ 20 µM | Kd [30, 47]: ≥ 20 µM | Kd [15, 47]: ≥ 20 µM | Kd [17, 47]: ≥ 20 µM | Kd ([6]; source organism: Yersinia pestis Nepal516): 0.0025 µM

FQYYGIDWV
Kd [2, 43]: 0.0117 µM | Kd [21, 43]: 0.495 µM | Kd [6, 44]: ≤ 0.0001 µM

HESSVSWMF
Kd [27, 48]: 0.67 µM | Kd [32, 48]: 0.0011 µM

KAFPLIQNM
Kd [16, 49]: 0.124 µM | Kd [17, 49]: 0.0124 µM | Kd ([1]; source organism: Cryptosporidium parvum Iowa II): 0.368 µM

LQMLGENVL
Kd [27, 50]: 0.152 µM | Kd [33, 50]: 0.017 µM | Kd [32, 50]: 0.836 µM

NLPSKPVWL
Kd [7, 51]: ≥ 20 µM | Kd [2, 51]: 6.91 µM | Kd [9, 51]: ≥ 20 µM | Kd [11, 51]: ≥ 20 µM | Kd [5, 51]: 7 µM | Kd [29, 51]: ≥ 20 µM | Kd [34]: ≥ 20 µM | Kd [12, 51]: ≥ 20 µM | Kd [13, 51]: ≥ 20 µM | Kd [16, 51]: ≥ 20 µM | Kd [17, 51]: ≥ 20 µM | Kd [35]: ≥ 20 µM | Kd ([26]; source organism: Escherichia coli str. K-12 substr. MG1655): 0.565 µM | Kd [36]: 3.54 µM

VAAHNAEAM
Kd ([18]; source organism: Leishmania major strain Friedlin): 0.002 µM

VLNETTNWL
Kd ([21]; source organism: West Nile virus): ≥ 20 µM | Kd ([18]; source organism: Japanese encephalitis virus): ≥ 20 µM

VRVCACPGR
Kd [37]: ≥ 20 µM | Kd [38]: 2.07 µM | Kd ([26]; source organism: Homo sapiens): ≥ 20 µM | Kd [39]: 2.33 µM | Kd [40]: ≥ 20 µM | Kd ([33]; source organism: Homo sapiens): ≥ 20 µM
